Consider two molecules from publication PMC4153296, “Mutant Taq DNA polymerases with improved elongation ability as a useful reagent for genetic engineering”.

The target of data set [1] is chimeric Taq 7-1 (Thermus aquaticus / environmental DNA chimera) (UniProt P19821). As to the kind of experiment: EMSA. The conditions noted are these: EMSA: 3 nM DNA, 20 mM Tris-HCl pH 8.8, 10 mM NaCl, 5 mM MgCl2, 14 mM 2-mercaptoethanol, 0.1 mg/ml BSA, 5% glycerol, 40 C, 5 min; 1% agarose gel. Background: Mobility shift assays separate free from complexed probe on a gel.

For data set [2], the target named is chimeric Taq 29-1 (Thermus aquaticus / environmental DNA chimera) (UniProt P19821). As to the kind of experiment: EMSA. The conditions noted are these: EMSA: 3 nM DNA, 20 mM Tris-HCl pH 8.8, 10 mM NaCl, 5 mM MgCl2, 14 mM 2-mercaptoethanol, 0.1 mg/ml BSA, 5% glycerol, 40 C, 5 min; 1% agarose gel.
Data set [3] addresses chimeric Taq 7-3 (Thermus aquaticus / environmental DNA chimera) (UniProt P19821). As to the kind of experiment: EMSA. To be noted: EMSA: 3 nM DNA, 20 mM Tris-HCl pH 8.8, 10 mM NaCl, 5 mM MgCl2, 14 mM 2-mercaptoethanol, 0.1 mg/ml BSA, 5% glycerol, 40 C, 5 min; 1% agarose gel.
In data set [4] the target is chimeric Taq 4-1 (Thermus aquaticus / environmental DNA chimera) (UniProt P19821). As to the kind of experiment: EMSA. To be noted: EMSA: 3 nM DNA, 20 mM Tris-HCl pH 8.8, 10 mM NaCl, 5 mM MgCl2, 14 mM 2-mercaptoethanol, 0.1 mg/ml BSA, 5% glycerol, 40 C, 5 min; 1% agarose gel.
Data set [5] deals with chimeric Taq 30-1 (Thermus aquaticus / environmental DNA chimera) (UniProt P19821). The experiment in a line: EMSA. To be noted: EMSA: 3 nM DNA, 20 mM Tris-HCl pH 8.8, 10 mM NaCl, 5 mM MgCl2, 14 mM 2-mercaptoethanol, 0.1 mg/ml BSA, 5% glycerol, 40 C, 5 min; 1% agarose gel.
The target of data set [6] is chimeric Taq 4-2 (Thermus aquaticus / environmental DNA chimera) (UniProt P19821). The experiment in a line: EMSA. To be noted: EMSA: 3 nM DNA, 20 mM Tris-HCl pH 8.8, 10 mM NaCl, 5 mM MgCl2, 14 mM 2-mercaptoethanol, 0.1 mg/ml BSA, 5% glycerol, 40 C, 5 min; 1% agarose gel.
For data set [7], the target named is chimeric Taq 8-2 (Thermus aquaticus / environmental DNA chimera) (UniProt P19821). As to the kind of experiment: EMSA. To be noted: EMSA: 3 nM DNA, 20 mM Tris-HCl pH 8.8, 10 mM NaCl, 5 mM MgCl2, 14 mM 2-mercaptoethanol, 0.1 mg/ml BSA, 5% glycerol, 40 C, 5 min; 1% agarose gel.
In data set [8] the target is chimeric Taq 1-1 (Thermus aquaticus / environmental DNA chimera) (UniProt P19821). The experiment in a line: EMSA. To be noted: EMSA: 3 nM DNA, 20 mM Tris-HCl pH 8.8, 10 mM NaCl, 5 mM MgCl2, 14 mM 2-mercaptoethanol, 0.1 mg/ml BSA, 5% glycerol, 40 C, 5 min; 1% agarose gel.
Data set [9] addresses chimeric Taq 10-1 (Thermus aquaticus / environmental DNA chimera) (UniProt P19821). As to the kind of experiment: EMSA. To be noted: EMSA: 3 nM DNA, 20 mM Tris-HCl pH 8.8, 10 mM NaCl, 5 mM MgCl2, 14 mM 2-mercaptoethanol, 0.1 mg/ml BSA, 5% glycerol, 40 C, 5 min; 1% agarose gel.
In data set [10] the target is chimeric Taq 7-2 (Thermus aquaticus / environmental DNA chimera) (UniProt P19821). As to the kind of experiment: EMSA. To be noted: EMSA: 3 nM DNA, 20 mM Tris-HCl pH 8.8, 10 mM NaCl, 5 mM MgCl2, 14 mM 2-mercaptoethanol, 0.1 mg/ml BSA, 5% glycerol, 40 C, 5 min; 1% agarose gel.
Data set [11] addresses chimeric Taq 12-1 (Thermus aquaticus / environmental DNA chimera) (UniProt P19821). As to the kind of experiment: EMSA. To be noted: EMSA: 3 nM DNA, 20 mM Tris-HCl pH 8.8, 10 mM NaCl, 5 mM MgCl2, 14 mM 2-mercaptoethanol, 0.1 mg/ml BSA, 5% glycerol, 40 C, 5 min; 1% agarose gel.
Data set [12] addresses chimeric Taq 8-1 (Thermus aquaticus / environmental DNA chimera) (UniProt P19821). As to the kind of experiment: EMSA. The conditions noted are these: EMSA: 3 nM DNA, 20 mM Tris-HCl pH 8.8, 10 mM NaCl, 5 mM MgCl2, 14 mM 2-mercaptoethanol, 0.1 mg/ml BSA, 5% glycerol, 40 C, 5 min; 1% agarose gel.
Data set [13] addresses chimeric Taq 1-2 (Thermus aquaticus / environmental DNA chimera) (UniProt P19821). As to the kind of experiment: EMSA. The conditions noted are these: EMSA: 3 nM DNA, 20 mM Tris-HCl pH 8.8, 10 mM NaCl, 5 mM MgCl2, 14 mM 2-mercaptoethanol, 0.1 mg/ml BSA, 5% glycerol, 40 C, 5 min; 1% agarose gel.
A further data set addresses TaqEH (Thermus aquaticus, UniProt P19821 1-832, A743H). As to the kind of experiment: EMSA; 5 mM Mg2+; apparent Kd; EMSA: 3 nM DNA, 20 mM Tris-HCl pH 8.8, 10 mM NaCl, 5 mM MgCl2, 14 mM 2-mercaptoethanol, 0.1 mg/ml BSA, 5% glycerol, 40 C, 5 min; 1% agarose gel. The conditions noted are these: protein: recombinant; label: 32P on 27mer; primer-template; 27 bp duplex, 5' overhang 22 nt on the 49mer template.

The next data set deals with TaqHA (Thermus aquaticus, UniProt P19821 1-832, E742H). Described as above. To be noted: protein: recombinant; label: 32P on 27mer; primer-template; 27 bp duplex, 5' overhang 22 nt on the 49mer template.
The target of the next data set is TaqER (Thermus aquaticus, UniProt P19821 1-832, A743R). The description is as above. The conditions noted are these: protein: recombinant; label: 32P on 27mer; primer-template; 27 bp duplex, 5' overhang 22 nt on the 49mer template.
The next data set has as its target TaqRA (Thermus aquaticus, UniProt P19821 1-832, E742R). The data set is described as above. To be noted: protein: recombinant; label: 32P on 27mer; primer-template; 27 bp duplex, 5' overhang 22 nt on the 49mer template.
In another data set the target is TaqHK (Thermus aquaticus, UniProt P19821 1-832, E742H;A743K). Described as above. To be noted: protein: recombinant; label: 32P on 27mer; primer-template; 27 bp duplex, 5' overhang 22 nt on the 49mer template.
A further data set concerns the target TaqQY (Thermus aquaticus, UniProt P19821 1-832, E742Q;A743Y). The description is as above. To be noted: protein: recombinant; label: 32P on 27mer; primer-template; 27 bp duplex, 5' overhang 22 nt on the 49mer template.
Another data set deals with TaqAR (Thermus aquaticus, UniProt P19821 1-832, E742A;A743R). The data set is described as above. The conditions noted are these: protein: recombinant; label: 32P on 27mer; primer-template; 27 bp duplex, 5' overhang 22 nt on the 49mer template.
The next data set has as its target TaqRK (Thermus aquaticus, UniProt P19821 1-832, E742R;A743K). The data set is described as above. To be noted: protein: recombinant; label: 32P on 27mer; primer-template; 27 bp duplex, 5' overhang 22 nt on the 49mer template.
The target of a further data set is TaqAH (Thermus aquaticus, UniProt P19821 1-832, E742A;A743H). Described as above. To be noted: protein: recombinant; label: 32P on 27mer; primer-template; 27 bp duplex, 5' overhang 22 nt on the 49mer template.
The target of another data set is TaqRR (Thermus aquaticus, UniProt P19821 1-832, E742R;A743R). Described as above. The conditions noted are these: protein: recombinant; label: 32P on 27mer; primer-template; 27 bp duplex, 5' overhang 22 nt on the 49mer template.
The target in data set [14] is Taq DNA polymerase WT (TaqEA) (Thermus aquaticus, UniProt P19821 1-832). The description is as above. To be noted: protein: recombinant; label: 32P on 27mer; primer-template; 27 bp duplex, 5' overhang 22 nt on the 49mer template.
The next data set concerns the target TaqHH (Thermus aquaticus, UniProt P19821 1-832, E742H;A743H). Described as above. To be noted: protein: recombinant; label: 32P on 27mer; primer-template; 27 bp duplex, 5' overhang 22 nt on the 49mer template.
The next data set addresses TaqKK (Thermus aquaticus, UniProt P19821 1-832, E742K;A743K). Described as above. The conditions noted are these: protein: recombinant; label: 32P on 27mer; primer-template; 27 bp duplex, 5' overhang 22 nt on the 49mer template.
The next data set concerns the target TaqKR (Thermus aquaticus, UniProt P19821 1-832, E742K;A743R). The description is as above. The conditions noted are these: protein: recombinant; label: 32P on 27mer; primer-template; 27 bp duplex, 5' overhang 22 nt on the 49mer template.
For the next data set, the target named is TaqAA (Thermus aquaticus, UniProt P19821 1-832, E742A). The data set is described as above. To be noted: protein: recombinant; label: 32P on 27mer; primer-template; 27 bp duplex, 5' overhang 22 nt on the 49mer template.
Sequence of TaqAA (P19821 whole entry E742A): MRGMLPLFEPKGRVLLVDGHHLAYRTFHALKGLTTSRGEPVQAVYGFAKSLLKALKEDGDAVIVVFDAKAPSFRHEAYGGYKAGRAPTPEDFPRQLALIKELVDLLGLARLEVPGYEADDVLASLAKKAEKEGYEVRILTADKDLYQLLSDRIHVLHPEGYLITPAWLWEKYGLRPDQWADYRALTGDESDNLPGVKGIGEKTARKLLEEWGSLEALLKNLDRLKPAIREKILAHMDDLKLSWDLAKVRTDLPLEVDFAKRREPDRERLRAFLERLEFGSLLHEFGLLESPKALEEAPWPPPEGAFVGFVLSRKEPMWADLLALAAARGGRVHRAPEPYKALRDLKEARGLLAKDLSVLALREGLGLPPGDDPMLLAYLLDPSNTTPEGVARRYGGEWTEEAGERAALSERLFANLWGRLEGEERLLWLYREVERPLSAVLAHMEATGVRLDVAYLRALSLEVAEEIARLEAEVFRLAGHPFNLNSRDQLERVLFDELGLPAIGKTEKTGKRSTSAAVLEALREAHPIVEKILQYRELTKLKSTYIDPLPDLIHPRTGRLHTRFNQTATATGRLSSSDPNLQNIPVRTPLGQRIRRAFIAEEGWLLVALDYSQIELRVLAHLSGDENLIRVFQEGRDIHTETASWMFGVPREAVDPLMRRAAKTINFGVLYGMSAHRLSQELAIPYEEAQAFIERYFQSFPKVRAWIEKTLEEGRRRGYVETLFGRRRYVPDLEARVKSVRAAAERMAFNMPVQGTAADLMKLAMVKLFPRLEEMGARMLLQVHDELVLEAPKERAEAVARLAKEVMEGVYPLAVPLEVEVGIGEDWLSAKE

Sequence of chimeric Taq 29-1 (Thermus aquaticus / environmental DNA chimera) (P19821 whole entry, change not shown): as the sequence (P19821 whole entry E742A) above, with A742E counted along it
Sequence of Taq DNA polymerase WT (TaqEA) (P19821 whole entry): as the sequence (P19821 whole entry E742A) above, with A742E counted along it
Sequence of chimeric Taq 7-1 (Thermus aquaticus / environmental DNA chimera) (P19821 whole entry, change not shown): as the sequence (P19821 whole entry E742A) above, with A742E counted along it
Sequence of chimeric Taq 7-3 (Thermus aquaticus / environmental DNA chimera) (P19821 whole entry, change not shown): as the sequence (P19821 whole entry E742A) above, with A742E counted along it
Sequence of chimeric Taq 1-2 (Thermus aquaticus / environmental DNA chimera) (P19821 whole entry, stated change not applied): as the sequence (P19821 whole entry E742A) above, with A742E counted along it
Sequence of chimeric Taq 4-1 (Thermus aquaticus / environmental DNA chimera) (P19821 whole entry, change not shown): as the sequence (P19821 whole entry E742A) above, with A742E counted along it
Sequence of chimeric Taq 12-1 (Thermus aquaticus / environmental DNA chimera) (P19821 whole entry, change not shown): as the sequence (P19821 whole entry E742A) above, with A742E counted along it
Sequence of chimeric Taq 8-1 (Thermus aquaticus / environmental DNA chimera) (P19821 whole entry, change not shown): as the sequence (P19821 whole entry E742A) above, with A742E counted along it
Sequence of chimeric Taq 30-1 (Thermus aquaticus / environmental DNA chimera) (P19821 whole entry, change not shown): as the sequence (P19821 whole entry E742A) above, with A742E counted along it
Sequence of chimeric Taq 10-1 (Thermus aquaticus / environmental DNA chimera) (P19821 whole entry, change not shown): as the sequence (P19821 whole entry E742A) above, with A742E counted along it
Sequence of chimeric Taq 8-2 (Thermus aquaticus / environmental DNA chimera) (P19821 whole entry, change not shown): as the sequence (P19821 whole entry E742A) above, with A742E counted along it
Sequence of chimeric Taq 7-2 (Thermus aquaticus / environmental DNA chimera) (P19821 whole entry, change not shown): as the sequence (P19821 whole entry E742A) above, with A742E counted along it
Sequence of chimeric Taq 1-1 (Thermus aquaticus / environmental DNA chimera) (P19821 whole entry, change not shown): as the sequence (P19821 whole entry E742A) above, with A742E counted along it
Sequence of chimeric Taq 4-2 (Thermus aquaticus / environmental DNA chimera) (P19821 whole entry, change not shown): as the sequence (P19821 whole entry E742A) above, with A742E counted along it
Sequence of TaqEH (P19821 whole entry A743H): as the sequence (P19821 whole entry E742A) above, with A742E, A743H counted along it
Sequence of TaqAR (P19821 whole entry E742A/A743R): as the sequence (P19821 whole entry E742A) above, with A743R counted along it
Sequence of TaqHA (P19821 whole entry E742H): as the sequence (P19821 whole entry E742A) above, with A742H counted along it
Sequence of TaqRA (P19821 whole entry E742R): as the sequence (P19821 whole entry E742A) above, with A742R counted along it
Sequence of TaqHK (P19821 whole entry E742H/A743K): as the sequence (P19821 whole entry E742A) above, with A742H, A743K counted along it
Sequence of TaqKR (P19821 whole entry E742K/A743R): as the sequence (P19821 whole entry E742A) above, with A742K, A743R counted along it
Sequence of TaqER (P19821 whole entry A743R): as the sequence (P19821 whole entry E742A) above, with A742E, A743R counted along it
Sequence of TaqKK (P19821 whole entry E742K/A743K): as the sequence (P19821 whole entry E742A) above, with A742K, A743K counted along it
Sequence of TaqAH (P19821 whole entry E742A/A743H): as the sequence (P19821 whole entry E742A) above, with A743H counted along it
Sequence of TaqRK (P19821 whole entry E742R/A743K): as the sequence (P19821 whole entry E742A) above, with A742R, A743K counted along it
Sequence of TaqQY (P19821 whole entry E742Q/A743Y): as the sequence (P19821 whole entry E742A) above, with A742Q, A743Y counted along it
Sequence of TaqHH (P19821 whole entry E742H/A743H): as the sequence (P19821 whole entry E742A) above, with A742H, A743H counted along it
Sequence of TaqRR (P19821 whole entry E742R/A743R): as the sequence (P19821 whole entry E742A) above, with A742R, A743R counted along it

Take “AGCTATGACCATGATTACGAATTGCTT / AGCTACCATGCCTGCACGAATTAAGCAATTCGTAATCATGGTCATAGCT [primed DNA (27mer/49mer)]”: the Kd in data set [1] came out at 10 nM; in data set [2] it was 10 nM; in [3] it was 4 nM; in [4] it was 4 nM; in data set [5], 8 nM; in data set [6], 4 nM. Also, the Kd in [7] stood at 20 nM; in data set [8], 6 nM; in data set [9] it was 4 nM; in [10] it was 5 nM; in data set [11] it was 7 nM; in data set [12] it was 10 nM. In data set [13], the Kd worked out at 5 nM.

B1: primed DNA (27mer/49mer) (dsDNA)
DNA 1: AGCTATGACCATGATTACGAATTGCTT
DNA 2: AGCTACCATGCCTGCACGAATTAAGCAATTCGTAATCATGGTCATAGCT
As for B1, the Kd in the data set with TaqEH came out at 6 nM; in the data set with TaqHA it was 6 nM; with TaqER, 8 nM; with TaqRA, 8 nM; with TaqHK, 6 nM; with TaqQY, 10 nM. Further, the Kd with TaqAR turned out to be 8 nM; in the data set with TaqRK, 10 nM; in the data set with TaqAH it was 6 nM; with TaqRR, 9 nM; in data set [14], 400 nM; with TaqHH it was 6 nM. Besides, the Kd is 10 nM in the data set with TaqKK, 10 nM with TaqKR and 9 nM in the data set with TaqAA.
